B1: rabbit monoclonal anti-CD95L antibody clone 119-4 (antibody, V domains shown)
VH: QSLEESGGDLVKPGGTLTLTCTTSGFSFSDHYWMCWVRQAPGKGLEWIACIYTADSDSYYASWAKGRFTISKTSSTTVTLQMTSLTAADTATYFCARNGAYAGGPYGDLWGPGTLVTVSS
VL: DIVMTQTPSSVEAAVGGTVTIKCQASQSIRTSLVWYQQKPGQPPKLLIYKASDLPSGVPSRFKGSGSGTQFTLTISDLECADAATYYCQSYDFRDTINNGHSFGGGTEVVVKG
notes: Rabbit monoclonal IgG from a hybridoma subclone, detected with anti-rabbit IgG; Only VH and VL are tied to the clone by name; also called mAb119-4
B2: scFv-minibody SEQ ID 37 (scFv)
scFv: QSLEESGGDLVKPGASLTLTCTASGFSFSSGYDMCWVRQAPGKGLEWIACIDTDNDATYYASWAKGRFTISKPSSTTVLLQITSLTAADTATYFCATTHGDYVAFKLWGPGTLVTVSGGGSGGGSGGGSGGGSQVLTQTASSVSAAVGGTVTINCQSSQSVYKNNDLSWYQQKPRQPPKLLIYQASKLASGVPSRFKGSGSGTQFTLTIGDLESDDGATYYCAGGYTASIYAFGGGTEVVGSGSSGQPREPQVYTLPPSREEMTKNQVSLTCLVKGFYPSDIAVEWESQGSPENNYKTTPPVLDSDGSFFLYSKLTVDKSRWQQGNVFSCSVMHEALHNHYTQKSLSLSPGSSSSSSAWSHPQFEK
B3: scFv-minibody SEQ ID 38 (scFv)
scFv: EVQLVESGGGLVQPGGSLRLSCAASGFSFSSGYDMCWVRQAPGKGLEWVACIDTDNDATYYASWAKGRFTISKDSSKNTLYLQMNSLRAEDTAVYYCARTHGDYVAFKLWGQGTLVTVSGGGSGGGSGGGSGGGSDIQMTQSPSSLSASVGDRVTITCQSSQSVYKNNDLSWYQQKPGKAPKLLIYQASKLASGVPSRFSGSGSGTDFTLTISSLQPEDFATYYCAGGYTASIYAFGQGTKVEIKGSGSSGQPREPQVYTLPPSREEMTKNQVSLTCLVKGFYPSDIAVEWESQGSPENNYKTTPPVLDSDGSFFLYSKLTVDKSRWQQGNVFSCSVMHEALHNHYTQKSLSLSPGSSSSSSAWSHPQFEK
B4: scFv-minibody SEQ ID 40 (scFv)
scFv: B3 scFv with C36S, A50S, C51A, S63D, W64S, A65V
B5: scFv-minibody SEQ ID 39 (scFv)
scFv: B3 scFv with S63D, W64S, A65V
B6: scFv-minibody SEQ ID 48 (scFv)
scFv: QSLEESGGDLVKPGGTLTLTCTTSGFSFSDHYWMCWVRQAPGKGLEWIACIYTADSDSYYASWAKGRFTISKTSSTTVTLQMTSLTAADTATYFCARNGAYAGGPYGDLWGPGTLVTVSGGGSGGGSGGGSGGGSDIVMTQTPSSVEAAVGGTVTIKCQASQSIRTSLVWYQQKPGQPPKLLIYKASDLPSGVPSRFKGSGSGTQFTLTISDLESADAATYYCQSYDFRDTINNGHSFGGGTEVVVKGSGSSGQPREPQVYTLPPSREEMTKNQVSLTCLVKGFYPSDIAVEWESQGSPENNYKTTPPVLDSDGSFFLYSKLTVDKSRWQQGNVFSCSVMHEALHNHYTQKSLSLSPGSSSSSSAWSHPQFEK
B7: scFv-minibody SEQ ID 49 (scFv)
scFv: EVQLVESGGGLVQPGGSLRLSCAASGFSFSDHYWMCWVRQAPGKGLEWVACIYTADSDSYYASWAKGRFTISKDSSKNTLYLQMNSLRAEDTAVYYCARNGAYAGGPYGDLWGQGTLVTVSGGGSGGGSGGGSGGGSDIQMTQSPSSLSASVGDRVTITCKASQSIRTSLVWYQQKPGKAPKLLIYKASDLPSGVPSRFSGSGSGTDFTLTISSLQPEDFATYYCQSYDFRDTINNGHSFGQGTKVEIKGSGSSGQPREPQVYTLPPSREEMTKNQVSLTCLVKGFYPSDIAVEWESQGSPENNYKTTPPVLDSDGSFFLYSKLTVDKSRWQQGNVFSCSVMHEALHNHYTQKSLSLSPGSSSSSSAWSHPQFEK
B8: scFv-minibody SEQ ID 51 (scFv)
scFv: B7 scFv with C36S, A50S, C51A, S63D, W64S, A65V
B9: scFv-minibody SEQ ID 50 (scFv)
scFv: B7 scFv with S63D, W64S, A65V
B10: APG101 (Fc fusion, UniProt P25445 26-173, looked up, not shown: a dimerising Fc or GST)
chain: QVTDINSKGLELRKTVTTVETQNLEGLHHDGQFCHKPCPPGERKARDCTVNGDEPDCVPCQEGKEYTDKAHFSSKCRRCRLCDEGHGLEVEINCTRTQNTKCRCKPNFFCNSTVCEHCDPCTKCEHGIIKECTLTSNTKCKEEGSRSN

Where a chain is given by its changes, count along the chain named. Ends that are not written are not given here.

By Kd is commonly meant the concentration at which binding is half-saturated. A higher Kd goes with lower affinity.

The target in one assay is T1, peptide C-YMRNSKY (also: immobilized to BSA or ovalbumin).
T1 construct: Printed as 'C-YMRNSKY'; the leading C is read as an added cysteine
T1 peptide: CYMRNSKY
Kind of assay: peptide ELISA, peptide on BSA or ovalbumin coated. The protocol:
Binding of the rabbit monoclonal antibody was detected by incubation with goat anti rabbit IgG-Peroxidase (Sigma; dilution 1:5000) and subsequent detection of the converted Peroxidase-substrate TMBone at a wavelength of 450 nm in an ELISA reader (FIG. 13).
Binding of the rabbit monoclonal antibody was detected by incubation with goat anti rabbit IgG-Peroxidase (Sigma; dilution 1:5000) and subsequent detection of the converted Peroxidase-substrate TMBone at a wavelength of 450 nm in an ELISA reader (FIG. 14).
In general terms: An ELISA detects its analyte on a solid surface through an enzyme-linked reagent.
For B1, the binding result is reported as “no binding (tested: 2 µg/ml)”.

A further assay deals with T2, APG707 (LIGHT-RB69) (human).
T2 construct: Structurally related TNF-superfamily protein with the same trimerisation scaffold as APG296; also called human LIGHT (APG707)
T2 chain: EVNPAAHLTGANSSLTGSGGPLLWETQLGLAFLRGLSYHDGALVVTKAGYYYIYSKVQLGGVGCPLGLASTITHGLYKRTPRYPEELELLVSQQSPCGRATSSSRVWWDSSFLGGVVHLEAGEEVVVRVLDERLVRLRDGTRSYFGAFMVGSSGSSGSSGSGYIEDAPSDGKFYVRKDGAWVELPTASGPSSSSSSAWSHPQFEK
Kind of assay: competition ELISA, APG296 coated, APG707 as soluble competitor. The protocol: For the competition ELISA, 96-well microtiter plates were coated with 10 μg/ml APG296 (CD95L-RB69). […] Binding of the rabbit monoclonal antibodies was detected by incubation with goat anti rabbit IgG-Peroxidase (Sigma; dilution 1:5000) and subsequent detection of the converted Peroxidase-substrate TMBone at a wavelength of 450 nm in an ELISA reader (FIG. 6).
Regarding B1, the binding result is recorded as “no binding (tested: 100 µg/ml)”.

The target of the next assay is T3, APG293 (human CD95L-T4) (human).
T3 chain: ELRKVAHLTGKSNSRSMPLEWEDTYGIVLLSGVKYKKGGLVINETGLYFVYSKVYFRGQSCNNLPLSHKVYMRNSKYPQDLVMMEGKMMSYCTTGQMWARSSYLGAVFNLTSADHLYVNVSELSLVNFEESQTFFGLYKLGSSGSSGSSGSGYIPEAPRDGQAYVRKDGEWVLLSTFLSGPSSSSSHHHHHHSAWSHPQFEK
Nature of the assay: cell-based or functional assay.
For B2, the “EC50, Assay 1: antagonism of CD95L-T4-induced apoptosis on Jurkat A3 cells” value (from here on “EC50, Assay 1: antagonism”) stood at 0.124 µg/mL; the “EC50, Assay 2: antagonism of CD95L-T4-induced apoptosis on Jurkat A3 cells” value (“EC50, Assay 2: antagonism” below) came to 0.117 µg/mL; the “EC50, Assay 5: antagonism of CD95L-T4-induced apoptosis on Jurkat A3 cells” value (shortened to “EC50, Assay 5: antagonism”) was found to be 0.113 µg/mL; the “EC50, Assay 6: antagonism of CD95L-T4-induced apoptosis on Jurkat A3 cells” value (shortened to “EC50, Assay 6: antagonism”) worked out at 0.118 µg/mL. Also, the “EC50, Mean: antagonism of CD95L-T4-induced apoptosis on Jurkat A3 cells” value (shortened to “EC50, Mean: antagonism”) was found to be 0.118 µg/mL.

In the case of B3, the “EC50, Assay 1: antagonism” value was found to be 0.118 µg/mL; the “EC50, Assay 2: antagonism” value was 0.114 µg/mL; the “EC50, Assay 5: antagonism” value amounted to 0.0957 µg/mL; the “EC50, Assay 6: antagonism” value is 0.111 µg/mL. Also, the “EC50, Mean: antagonism” value amounted to 0.11 µg/mL.

On to B4, for which the “EC50, Assay 1: antagonism” value was 0.532 µg/mL; the “EC50, Assay 2: antagonism” value worked out at 0.591 µg/mL; the “EC50, Assay 5: antagonism” value was 0.701 µg/mL; the “EC50, Assay 6: antagonism” value was 0.571 µg/mL. Besides, the “EC50, Mean: antagonism” value stood at 0.599 µg/mL.

Take B5: the “EC50, Assay 1: antagonism” value was 0.0994 µg/mL; the “EC50, Assay 2: antagonism” value worked out at 0.105 µg/mL; the “EC50, Assay 5: antagonism” value was determined as 0.0865 µg/mL; the “EC50, Assay 6: antagonism” value worked out at 0.0834 µg/mL. Also, the “EC50, Mean: antagonism” value worked out at 0.093 µg/mL.

Take B6: the “EC50, Assay 3: antagonism of CD95L-T4-induced apoptosis on Jurkat A3 cells” value (from here on “EC50, Assay 3: antagonism”) was found to be 0.116 µg/mL; the “EC50, Assay 4: antagonism of CD95L-T4-induced apoptosis on Jurkat A3 cells” value (“EC50, Assay 4: antagonism” below) came to 0.0908 µg/mL; the “EC50, Assay 5: antagonism” value turned out to be 0.0844 µg/mL; the “EC50, Assay 6: antagonism” value was found to be 0.0975 µg/mL. In addition, the “EC50, Mean: antagonism” value amounted to 0.097 µg/mL.

On to B7, for which the “EC50, Assay 3: antagonism” value is 0.172 µg/mL; the “EC50, Assay 4: antagonism” value is 0.144 µg/mL; the “EC50, Assay 5: antagonism” value turned out to be 0.117 µg/mL; the “EC50, Assay 6: antagonism” value was determined as 0.127 µg/mL. Moreover, the “EC50, Mean: antagonism” value was determined as 0.14 µg/mL.

For the molecule B8, the “EC50, Assay 3: antagonism” value worked out at 1.55 µg/mL; the “EC50, Assay 4: antagonism” value turned out to be 2.26 µg/mL; the “EC50, Assay 5: antagonism” value is 1.48 µg/mL; the “EC50, Assay 6: antagonism” value stood at 1.74 µg/mL. Moreover, the “EC50, Mean: antagonism” value is 1.76 µg/mL.

As for B9, the “EC50, Assay 3: antagonism” value was 0.169 µg/mL; the “EC50, Assay 4: antagonism” value turned out to be 0.136 µg/mL; the “EC50, Assay 5: antagonism” value came out at 0.128 µg/mL; the “EC50, Assay 6: antagonism” value was 0.14 µg/mL. Further, the “EC50, Mean: antagonism” value is 0.143 µg/mL.

B10: the “EC50, Assay 1: antagonism” value is 0.774 µg/mL; the “EC50, Assay 2: antagonism” value amounted to 0.789 µg/mL; the “EC50, Assay 3: antagonism” value amounted to 0.707 µg/mL; the “EC50, Assay 4: antagonism” value came to 0.714 µg/mL. The “EC50, Mean: antagonism” value amounted to 0.746 µg/mL.

A further assay concerns the target T4, epitope-comprising peptide YMRNSKYPQD (also: coupled to BSA).
T4 peptide: YMRNSKYPQD
Kind of assay: QCM (Attana A100), peptide-BSA immobilized, antibody as analyte. As for the experimental part: The A100 allows to investigate molecular interactions in real-time based on the Quartz Crystal Microbalance (QCM) technique. For this purpose, the respective epitope comprising peptide was coupled to BSA and subsequently immobilized to the surface of a carboxyl-activated QCM-chip. […] Binding (kₒₙ) and dissociation (koff) was analyzed in real time, and the respective KD was calculated (see table in FIG. 16).
Consider B1, for which the binding result is recorded as “binds”.

The target in another assay is T5, epitope-comprising peptide YMRNSKYPQD (also: coupled to BSA).
T5 peptide: YMRNSKYPQD
Kind of assay: QCM; immobilized BSA-coupled peptide.
In turn, B1 yielded a Kd of 1.2 nM.

Source of the values: patent US20180208664A1 (APOGENIX, published 2018).
